In assay [1] the target is T1, human serum albumin (human, UniProt P02768 25-609).
T1 construct: Bought protein; also called HSA; human SA
Nature of the assay: monoclonal phage ELISA at pH 7.4: Fab on phage, about 10^8 CFU/well, on antigen coated at 5 ug/ml; anti-human kappa-HRPO, TMB, A450. As to the method:
(§1) For the monoclonal phage ELISA, the recombinant phage was obtained from positive E. coli clones by phage rescue, and ˜10⁸ CFU/well were added to MaxiSorb ELISA plates (Nunc, Roskilde, Denmark) that were coated with 5 μg/ml HSA, RSA, MSA or BSA. The phage was allowed to bind to the antigens either at pH 6 or at pH 7.4 for 1 h at 37° C. A goat anti-human kappa L Ab-conjugated with HRPO (Sigma-Aldrich) was used as a secondary antibody. The binding signals were visualized with a TMB substrate (BD Science, San Jose, Calif., USA), and the absorbance at 450 nm was measured using an ELISA reader (Bio-Rad, Hercules, Calif., USA). The data represent the average of three experiments standard deviation. For the conventional ELISA, the various antigens [human SA, rat SA, mouse SA, monkey SA (Alpha diagnositic Intl., San Antonio, Tex., USA), canine SA (CUSABIO, Wuhan, Hubei, China). rabbit SA (Sigma-Aldrich), epidermal growth factor receptor (EGFR) (R&D systems, Minneapolis, Minn., USA), epithelial cell adhesion molecule (EpCAM) (R&D systems), IL-15 receptor a (IL-15Ra) (R&D systems), IL-10 (eBioscience, San Diego, Calif., USA), CD16a (R&D systems), c-MET (Sinobiological, Beijing, China)] at 5 μg/ml concentrations were immobilized on the microtiter plates, and the Fab molecules were allowed to bind to the antigens, and detected as above. To determine the concentration of soluble Fab or Fab-hGH fusion proteins, a sandwich ELISA was performed using a mouse anti-human IgG Fd mAb (AprilBio) as a capturing Ab and the goat anti-human kappa L chain pAb-HRPO conjugated (Sigma-Aldrich) as a detecting antibody. The human Fab fragment (Bethyl, Montgomery, Tex., USA) with a known concentration was used to draw the standard curve. For detecting the hGH domain, T-20, a goat pAb specific for the C-terminus of the hGH (Santacruz Biotechnology, Dallas, Tex., USA) and NYThGH, a mouse mAb specific for full-length hGH (Prospec, East Brunswick, N.J., USA) were used followed by a rabbit anti-goat IgG pAb-HRPO conjugated (Sigma-Aldrich) or a goat anti-mouse IgG pAb-HRPO conjugated (Sigma-Aldrich), respectively as a secondary antibody. A goat anti-human GCSF pAb (R&D Systems) was used to detecting the G-CSF domain, and a rabbit anti-human IFN-β pAb (PEPROTECH, Rocky Hill, USA) was used to detect the IFN-β domain.
(In general: An ELISA detects its analyte on a solid surface through an enzyme-linked reagent.)

In assay [2] the target is T2, bovine serum albumin (bovine, UniProt P02769 25-607).
T2 construct: also called BSA; bovine SA
T2 sequence (P02769 25-607 limits assumed): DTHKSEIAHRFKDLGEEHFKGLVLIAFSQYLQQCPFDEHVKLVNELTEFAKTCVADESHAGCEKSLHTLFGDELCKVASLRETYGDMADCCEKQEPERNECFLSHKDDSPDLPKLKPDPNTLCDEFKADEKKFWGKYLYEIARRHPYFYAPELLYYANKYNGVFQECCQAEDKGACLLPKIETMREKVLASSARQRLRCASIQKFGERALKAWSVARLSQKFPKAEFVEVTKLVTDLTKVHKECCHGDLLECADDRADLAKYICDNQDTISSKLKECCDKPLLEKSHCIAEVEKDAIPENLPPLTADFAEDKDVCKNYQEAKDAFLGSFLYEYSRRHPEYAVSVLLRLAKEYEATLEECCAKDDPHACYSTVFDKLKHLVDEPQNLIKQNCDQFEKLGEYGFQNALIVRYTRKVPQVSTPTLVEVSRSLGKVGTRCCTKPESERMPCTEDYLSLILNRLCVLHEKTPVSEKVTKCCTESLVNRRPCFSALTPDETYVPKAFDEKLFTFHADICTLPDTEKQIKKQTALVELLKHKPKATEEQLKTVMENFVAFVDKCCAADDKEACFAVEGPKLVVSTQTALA
Nature of the assay: monoclonal phage ELISA at pH 7.4, antigen coated at 5 ug/ml, anti-human kappa-HRPO, A450. As to the method: as §1

For assay [3], the target named is T3, mouse serum albumin (mouse, UniProt P07724 25-608).
T3 construct: Bought protein; also called MSA; mouse SA
T3 sequence (P07724 25-608 limits assumed): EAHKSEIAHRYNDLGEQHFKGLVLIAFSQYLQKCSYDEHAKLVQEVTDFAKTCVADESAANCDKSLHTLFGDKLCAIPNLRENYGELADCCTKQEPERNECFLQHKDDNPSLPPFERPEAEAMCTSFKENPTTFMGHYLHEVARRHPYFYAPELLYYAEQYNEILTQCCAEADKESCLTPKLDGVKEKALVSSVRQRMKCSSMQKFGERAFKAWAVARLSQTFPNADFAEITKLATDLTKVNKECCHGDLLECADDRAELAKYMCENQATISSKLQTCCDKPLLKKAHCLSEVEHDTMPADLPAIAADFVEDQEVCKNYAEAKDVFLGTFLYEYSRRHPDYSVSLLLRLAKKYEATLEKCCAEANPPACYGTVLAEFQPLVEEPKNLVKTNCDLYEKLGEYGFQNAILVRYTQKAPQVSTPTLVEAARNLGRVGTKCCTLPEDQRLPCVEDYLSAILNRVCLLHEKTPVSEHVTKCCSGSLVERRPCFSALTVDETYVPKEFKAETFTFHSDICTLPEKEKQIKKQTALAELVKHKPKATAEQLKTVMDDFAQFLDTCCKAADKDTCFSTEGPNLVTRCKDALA
The assay is described as above. As to the method: as §1

The target of assay [4] is T4, rat serum albumin (rat, UniProt P02770 25-608).
T4 construct: Bought protein; also called RSA; rat SA
T4 sequence (P02770 25-608 limits assumed): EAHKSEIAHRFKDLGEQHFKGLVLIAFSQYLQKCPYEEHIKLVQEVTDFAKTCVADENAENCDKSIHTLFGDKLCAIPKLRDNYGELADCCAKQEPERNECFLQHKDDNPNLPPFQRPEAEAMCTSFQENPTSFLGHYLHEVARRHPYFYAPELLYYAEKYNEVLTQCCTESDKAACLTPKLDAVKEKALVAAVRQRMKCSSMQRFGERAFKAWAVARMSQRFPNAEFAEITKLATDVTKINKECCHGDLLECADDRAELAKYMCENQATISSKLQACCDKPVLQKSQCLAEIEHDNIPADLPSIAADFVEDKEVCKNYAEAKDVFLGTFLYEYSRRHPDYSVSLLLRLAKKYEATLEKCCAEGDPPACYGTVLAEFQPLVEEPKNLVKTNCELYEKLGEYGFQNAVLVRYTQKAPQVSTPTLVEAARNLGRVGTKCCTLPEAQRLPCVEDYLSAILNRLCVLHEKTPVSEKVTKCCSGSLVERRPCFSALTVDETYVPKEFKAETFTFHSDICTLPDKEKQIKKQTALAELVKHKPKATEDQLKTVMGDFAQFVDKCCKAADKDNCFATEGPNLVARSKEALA
Described as above. As to the method: as §1

For assay [5], the target named is T2, bovine serum albumin. In words: monoclonal phage ELISA at pH 6, antigen coated at 5 ug/ml, anti-human kappa-HRPO, A450. As to the method: as §1
In assay [6] the target is T3, mouse serum albumin. Described as above. As to the method: as §1
Assay [7] addresses T4, rat serum albumin. The description is as above. As to the method: as §1
The target of assay [8] is T3, mouse serum albumin. Nature of the assay: monoclonal phage ELISA at pH 7.4: Fab on phage, about 10^8 CFU/well, on antigen coated at 5 ug/ml; anti-human kappa-HRPO, TMB, A450. As to the method: as §1
Assay [9] has as its target T4, rat serum albumin. The assay is described as above. As to the method: as §1
Assay [10] deals with T4, rat serum albumin. Nature of the assay: ELISA at pH 6.0: purified soluble Fab titrated on antigen coated at 5 ug/ml; anti-human kappa L chain pAb-HRPO, TMB, A450. As to the method:
(§2) For the monoclonal phage ELISA, the recombinant phage was obtained from positive E. coli clones by phage rescue, and ˜10⁸ CFU/well were added to MaxiSorb ELISA plates (Nunc, Roskilde, Denmark) that were coated with 5 μg/ml HSA, RSA, MSA or BSA. The phage was allowed to bind to the antigens either at pH 6 or at pH 7.4 for 1 h at 37° C. A goat anti-human kappa L Ab-conjugated with HRPO (Sigma-Aldrich) was used as a secondary antibody. The binding signals were visualized with a TMB substrate (BD Science, San Jose, Calif., USA), and the absorbance at 450 nm was measured using an ELISA reader (Bio-Rad, Hercules, Calif., USA). The data represent the average of three experiments standard deviation. For the conventional ELISA, the various antigens [human SA, rat SA, mouse SA, monkey SA (Alpha diagnositic Intl., San Antonio, Tex., USA), canine SA (CUSABIO, Wuhan, Hubei, China). rabbit SA (Sigma-Aldrich), epidermal growth factor receptor (EGFR) (R&D systems, Minneapolis, Minn., USA), epithelial cell adhesion molecule (EpCAM) (R&D systems), IL-15 receptor a (IL-15Ra) (R&D systems), IL-10 (eBioscience, San Diego, Calif., USA), CD16a (R&D systems), c-MET (Sinobiological, Beijing, China)] at 5 μg/ml concentrations were immobilized on the microtiter plates, and the Fab molecules were allowed to bind to the antigens, and detected as above. […]

The target in assay [11] is T1, human serum albumin. The description is as above. As to the method:
as §2

The target of assay [12] is T3, mouse serum albumin. In words: monoclonal phage ELISA at pH 6: Fab on phage, about 10^8 CFU/well, on antigen coated at 5 ug/ml; anti-human kappa-HRPO, TMB, A450. As to the method:
as §2

For assay [13], the target named is T4, rat serum albumin. Nature of the assay: ELISA at pH 7.4: purified soluble Fab titrated on antigen coated at 5 ug/ml; anti-human kappa L chain pAb-HRPO, TMB, A450. As to the method: as §2
In assay [14] the target is T1, human serum albumin. The assay is described as above. As to the method: as §2

B1: SA139 (Fab, V domains shown)
VH: EVQLLQSGAEVKEPGASVKVSCKASGYTFSSYGISWVRQAPGQGLEWVGRINTYNGNTGYAQRLQGRVTMTTDTSTSIAYMEVRSLRSDDTAVYYCARLGHCQRGICSDALDTWGQGTMVTVSS
VL: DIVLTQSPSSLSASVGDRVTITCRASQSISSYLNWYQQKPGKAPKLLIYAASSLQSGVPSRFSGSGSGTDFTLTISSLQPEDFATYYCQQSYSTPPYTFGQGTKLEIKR
notes: Human Fab (VH+CH1, VL+CLk); also called SA139 Fab
On to B1, for which the binding result was “binds” in the assay with human serum albumin [1], “no binding” in the assay with bovine serum albumin [2], “no binding” with mouse serum albumin [3] and “no binding” in the assay with rat serum albumin [4].

B2: SA141 (Fab, V domains shown)
VH: QVQLVQSGGGLVQPGGSLRLSCAASGFTFSSYAMSWVRQAPGKGLEWLSVISHDGGFQYYADSVKGRFTVSRDNSKNTLYLQMNSLRAEDTAVYYCARAGWLRQYGMDVWGQGTLVTVSS
VL: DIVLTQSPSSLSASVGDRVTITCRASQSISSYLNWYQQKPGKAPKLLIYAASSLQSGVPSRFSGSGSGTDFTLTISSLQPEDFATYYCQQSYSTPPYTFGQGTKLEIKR
notes: also called SA141 Fab
For B2, the binding result with human serum albumin [1] is recorded as “binds”; with bovine serum albumin [5], “no binding”; with mouse serum albumin [6] it was “no binding”; in the assay with rat serum albumin [7], “no binding”.

B3: SL18 (Fab, V domains shown)
VH: EVQLVQSGTEVKKPGESLKISCKISGYSFTAYWIAWVRQMPGKGLEWMGMIWPPDADARYSPSFQGQVTFSVDKSISTAYLQWHSLKTSDTAVYYCARLYSGSYSPWGQGTLVTVSS
VL: ELVLTQSPGTLSLSPGERATLSCRASQSIFNYVAWYQQKPGQAPRLLIYDASNRATGIPARFSGSGSGTDFTLTISSLEPEDFAVYYCQQRSKWPPTWTFGQGTRVDIKR
notes: Human Fab (VH+CH1, VL+CLk); tested on phage and as soluble Fab purified from E. coli; also called SL18 Fab
In the case of B3, the binding result with mouse serum albumin [8] is listed as “binds”; with rat serum albumin [9], “binds”; in the assay with human serum albumin [1], “binds”; in the assay with bovine serum albumin [5], “no binding”.

B4: SL310 (Fab, V domains shown)
VH: QVQLVQSGGGPVKPGGSLRLSCAASGFMFRAYSMNWVRQAPGKGLEWVSSISSSGRYIHYADSVKGRFTISRDNAKNSLYLQMNSLRAEDTAVYYCARETVMAGKALDYWGQGTLVTVSS
VL: ELVLTQSPGTLSLSPGERATLSCRASQSVSSSSLAWYQQKPGQAPRLLIYGASSRATGIPDRFSGSGSGTDFTLTISSLQPEDAATYYCQKYSSYPLTFGQGTKLEIKR
notes: Human Fab (VH+CH1, VL+CLk); tested on phage and as soluble Fab purified from E. coli; also called SL310 Fab
For the molecule B4, the 50% effective concentration (EC50 (read off the curve)) with rat serum albumin [10] was around 0.6 µg/mL; with human serum albumin [11], around 0.1 µg/mL; with rat serum albumin [13], around 0.2 µg/mL; with human serum albumin [14] it was around 0.3 µg/mL. Further, the binding result with mouse serum albumin [12] is “binds”; in the assay with bovine serum albumin [5], “no binding”.

B5: SL301 (Fab, V domains shown)
VH: QVQLVQSGGGPVKPGGSLRLSCAASGFMFRAYSMNWVRQAPGKGLEWVSSISSSGRYIHYADSVKGRFTISRDNAKNSLYLQMNSLRAEDTAVYYCARETVMAGKALDYWGQGTLVTVSS
VL: ELVLTQSPGTLSLSPGERATLSCRASETVSSRQLAWYQQKPGQAPRLLIYGASSRATGIPDRFSGSGSGTDFTLTISRLEPEDSAVFYCQQYGSSPRTFGGGTKLEIKR
notes: Human Fab (VH+CH1, VL+CLk); tested on phage and as soluble Fab purified from E. coli; also called SL301 Fab
Take B5: the binding result in the assay with rat serum albumin [9] is given as “binds”; with human serum albumin [1] it was “binds”; with bovine serum albumin [5], “no binding”.

B6: SA140 (Fab, V domains shown)
VH: QVQLVQSGGGVVQTGGSLRLSCAASGFTFRNYGIHWVRQAPGKGLEWVASISYDGSNKYYADSVKGRFTISRDNSRNTVHVQMDSLRGGDTAVYYCARDVHYYGSGSYYNAFDIWGQGTLVTVSS
VL: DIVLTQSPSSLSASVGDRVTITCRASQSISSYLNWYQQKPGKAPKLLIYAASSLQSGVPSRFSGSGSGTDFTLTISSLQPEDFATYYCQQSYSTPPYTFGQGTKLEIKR
notes: also called SA140 Fab
Regarding B6, the binding result with bovine serum albumin [5], in the assay with mouse serum albumin [3] and in the assay with rat serum albumin [4] was “no binding” throughout.

By EC50 (read off the curve) is commonly meant the concentration that produces a half-maximal response. A high value points to a need for much substance.

The values are drawn from US20180030127A1 (APRILBIO, published 2018).
